test: soluble on expression in E. coli; label from the status in PepcDB or PDB records

Sequence	soluble on expression in E. coli
MFQLSVQDIHPGEQAGNKEEAIRQIAAALAQAGNVAGGYVDGMLAREQQTSTFLGNGIAIPHGTTDTRDQVLKTGVQVFQFPQGVTWGEGQVAYVAIGIAASSDEHLGLLRQLTHVLSDDSVAEQLKSATTAEELRALLMGEKQSEQLKLDNETMTLDVIASSLVTLQALNAARLKEAGAVDAAFVAKTINDSPMNLGQGIWLNDSAEGNLRSAVAVSRATQAFDVEGEKAALLVTVAMNDEQPIAVLKRLGDLLLNNKADRLLSADAATLLALLTSDDALTDDVLSAEFVVRNEHGLHARPGTMLVNTIKQFNSEITVTNLDGTGKPANGRSLMKVVALGVKKGHRLRFTAQGEDAEQALKAIGDAIAAGLGEGA	not soluble
MFRNVAELVELAESQAIPISEVMIRQEIEVTERSREAIIEQMENHLDVMEKAVRRGITEQVRSVSGLTGGDAVLLQDYLKKGNYLSSETVLDAVSKAVATNEVNAAMGTICATPTAGASGVVPGVLFGMEKRLSPTKEQKVRFLFTSGAFGFVVANNASISGAAGGCQAEVGSATGMAAAALVELAGGTPSQSAEAMAIALKNMLGLVCDPVAGLVEVPCVKRNAIGASIAITAADMALAGIQSRIPTDEVIDAMYKIGQAMPVAYKETAQGGLAATPKGRELEAKIFGVALDKK	not soluble
MFRTQSRYLVRSILANHCVLPSTRMAVSPILNQSIKFYSSKDNATDKSQEKEQPKSILNDDMLARAGFEDVDPKEETSNSEEQATKQTGRKRKRAQTSKDLQRERYANMFYLSALIFGVAGVGYMSRDWDSEKEQEEMDGKNVENGYTPKLMYERLSKRLGSLFTFFSEPAFENLLPPPPPEQYRRPLTLVVTLDDFLIHSNWDTQHGWRTGKRPGLDYFLGYLSQYYEIVVFSSNSQIYSDKTVNKLDPYHAYISYALFREACRYKDGKLIKDLSLLNRDLGKTVMIDVDEDSAALQPENSIIVKKWEGQPDEYLISLIPFLEYLATQPVKDVRPILNSYKDKSNIVAEFAERENKLREQWRKDHGGNNGKPNAGNFIAKLLGIPVPEPKMPLDIIREHGQLQYEHFQKYLQENAHKFLEEEQKLKDEFGKVTLNKLITEGAPNAEEIAKVQQQRALEEAQKQQEGHK	not soluble
MFSAKKRDKCIGEMSEKQLDLLVIGGGITGAGIALDAQVRGIQTGLVEMNDFASGTSSRSTKLVHGGLRYLKQFEIKLVAEVGKERAIVYENAPHVTTPEWMLLPIFKDGTFGKFSTSLGLKVYDYLADVRKDERRYMLNEKQTLEKEPLLRKENLKGGGIYVEYRTDDARLTLEIMKEAVARGAVALNYMKVESFIYDQGKVVGVVAKDRLTDTTHTIYAKKVVNAAGPWVDTLREKDRSKHGKYLKLSKGVHLVVDQSRFPLRQAVYFDTESDGRMIFAIPREGKTYIGTTDTFYDKDIASPRMTVEDRDYILAAANYMFPSLNLTADDVESSWAGLRPLIHEEGKKASEISRKDEIFFSDSGLISIAGGKLTGYRKMAERTVDAVAQGLNVNEPCTTAAIRLSGGLAEGAQGFPRFLDEASRKGAKLGFDADEVRRLAKLYGSNVDHVLNYAYEGKEEAEHYGLPALLLGQLQYGVEQEMVATPLDFFVRRTGALFFNISLVHQWKEAVLRWMAEEFSWTEEEKTRFQNELETELKMAVDPLFQVEPTTVLEHHHHHH	soluble
MFSGKRLKKRRITLGYSQSELADKLHINRSSYFNWENEKTKPNQSNLKQLAILLDVPETYFESEYKIVNTYLQLSLQNQEKVEKYAEELLQTQKVHEKIVPLFAVEVLSEIQLSAGPGEGLYDEFETETVYSEDEYTGFDIATWISGNSMEPVYKDGEVALIRSTGFDHDGAVYALNWNGSLYIKKLYREEDGFRMVSINPDVAERFIPFEDEIRIVGKIVGHFMPVIGGLEHHHHHH	soluble
MFSKKKDKFMVQLEEMVFNLDRAAIEFGKMDFNTHLDLKAYSDNIKTYESHGDELMHQVISDLNQTFITPIEREDILSLCNAIDDVLDAMEETSAMFEMYSIEYTDEYMAEFVENIQKAVAEMKLAVGLLVDKKLSHMRIHSINIKEFETNCDGILRQSMKHIFNSETDPITLIKIKDIYQSMEEIADKCQAVANNFETIIMKNSLEHHHHHH	soluble
MFSWLGTDDRRRKDPEVFQTVSEGLKKLYKSKLLPLEEHYRFHEFHSPALEDADFDNKPMVLLVGQYSTGKTTFIRYLLEQDFPGMRIGPEPTTDSFIAVMQGDMEGIIPGNALVVDPKKPFRKLNAFGNAFLNRFVCAQLPNPVLESISVIDTPGILSGEKQRISRGYDFAAVLEWFAERVDRIILLFDAHKLDISDEFSEVIKALKNHEDKMRVVLNKADQIETQQLMRVYGALMWSLGKIVNTPEVIRVYIGSFWSHPLLIPDNRKLFEAEEQDLFRDIQSLPRNAALRKLNDLIKRARLAKVHAYIISSLKKEMPSVFGKDNKKKELVNNLAEIYGRIEREHQISPGDFPNLKRMQDQLQAQDFSKFQPLKSKLLEVVDDMLAHDIAQLMVLVRQEESQRPIQMVKGGAFEGTLHGPFGHGYGEGAGEGIDDAEWVVARDKPMYDEIFYTLSPVDGKITGANAKKEMVRSKLPNSVLGKIWKLADIDKDGMLDDDEFALANHLIKVKLEGHELPTSCLPTSCPRPRGKLPSDGVGGHSDGQC	not soluble
MFTIEHLNFAWLQVRAGSKSAGVDGISVDLFESMATEQLQNIAYQLKEETYTANPAKGFYIPKKNGTKRLIGIHTVRDRIIQRLLLDELYFPLEDTFLDCSYAYRPGHSIQQAVQHLYGYYQYQPKWIIKADVADFFDNLSWALLLTYLEELSLEPSLLQLLEQQLKSGIIIAGQYRNFGKGVLQGGILSGALANLYLTSFDRKCLSQGINLVRYGDDFVIACNSWLEANRILDKITGWLGEVYLTLQPEKTQIFTPNDEFTFLGYRFAGGEVYAPPPPEPVRPGEWVINDSGTPYFRLKPKPRKPVSLEHHHHHH	not soluble
MFVLSIALLSCTTLCAATTEWWGDLRAHLNPARQAPFYDVTYDEKVNVCPQGLHADAIPEYVYFGTMLATMTVDEHDQCLQKCAEKPRCKAVNFFHPFAYQEKGFCELLTEGQLDNPSLMRPFRKATYYEKIRCRELDDVEDVEEAAPIGSEITEKLPEDMAREKKLDMSKLMKKLSAKVKEFNGGAGGFRAAR	not soluble
MFVVPRRLSSFLSLVHEYRHLARRSYVMETPSIDIQNIRAKYLNSHDPYLLESKLPTTSPFELFDIWFRNVASQSDLTFEEINAVSLSTVGKDLRPSSRMVLLKAYTPTGFSFYTNYTSRKGNQLEENPNAAMLFYWPKVNRQIRVEGVVEKLPDEMAVAYWNSRPVASRIGSKSSDQSKVVPDREFLESKKVALTELSVREGAQAITKPESWGGYHLIPRYFEFWQGQSDRLHDRIVFERDVDVWLLKRLSP	not soluble
MFWKFLVSGLVGSACSAYHRGPTNVSLALDPPTLSIIMDPSKDIVPIRAVIVGGGYAGSKTAYQLDSMFAVTHIDEKNFYELTNDIIPIITNPWKEDVNPKACRRMMVLHRYYLKRSNVVTGTVIGVDAKQVYLRDGRTVPYDLLFLATGERKPFPFQTRERTISGRVQELKRFNEFLQSCKKVAVVGGGPVGTSLAHDLASTRPDLQVHLFHQRAELLPRLPGVCRRHAQEKLLSNPNLHLHLLTRVTDIDGVVLPSNGDKAASSSSPARHSCAGQLVNPPTSNAAVAESSLTLATTNAPWWRSLLNTVWPRRGVVPDQYSVHYDTLQSKVQQQPSILQQVYYGKRDEVAECGVVQARGVEEGFDYVFALTGDTPRPIQCDELEGRSRKLPNILREHETRDGHYRVSTLMQFLDHPNIFGVGRCTNLPVMRGYGSSDIETRTLFRELNSVISNPTTMFLHSRDGVQLAHMRIPRIHVRLGVDDAVGCTPWSGGMTGVSSVHEFMQDRSYLLREFQKPVFYKQQDQAKVKQRMSQWMEEEITDIVDFSHC	not soluble
MGAAKNIWALANAEDAANDAEQIPYSSFVVDTSLPLPLMIPRIIELCKDLFKNWGELDDSLFSVERVSGGITNLLLKVSVKEDTNKEVSVTVRLYGPNTEYVINREREILAIKYLSAAGFGAKLLGGFGNGMVQSFINARTLEPSDMREPKIAAQIARELGKFHKVDIPGSKEPQLWVDILKFYEKASTLTFEEPDKQKLFETISFEELHKEIIELREFTGLLNAPVVFAHNDLLSGNFMLNDEEEKLYLIDFEYGSYNYRGFDIGNHFNEYAGYDCDYSLYPSKEEQYHFIKHYLQPDKPDEVSIAEVESVFVETDAYKLASHLYWAIWAIIQARMSPIEFEYLGYFFLRYNEYKKQKPLTFSLVTSHLSASL	soluble
MGASQSAEQEARPEVVRIDRNEIPEEYKTVGVSSDVVSRVNATRVAGNDGESDRLRQELAREREEKARLREDMAKLSQLQQRKTAGISAAPVSISGNDLEERKKIFDDTVERVQKQFFAYHRENVCQDNENEIVRCLQENPGRVLKCAPLTEAFEKCVGEFRQQVLKGN	not soluble
MGAVGRGRRMSERHLRRSTHKVGDITLGAVHRLNCHCGAVQIDLDLPHGLVDPRRCDCSMCRRRGAIVASVPLQGLHVRQGEDVLRLYQFNTHAAAHYFCGVCGIYTHHRRRSNPNEYGYNVGCLEGVNPYALNITVPVEDGIHHPADRVAPQLEHHHHHH	not soluble
MGAVSAFSWASSGRLHALEVFVMKIPKTYDEIMEHFGGLIDEVTAELLESYAKGETVRVSEALAKSGRVAVEGVVLRVFPVRHFSKNGRSGKVGSVVIQDDCTVRVNFWNEAAEIIEAGDIVEGARIKVRGYARGEEIHVNSLSEVEVFVDFVNISELDEKVGERVNVKGFVSGLGEPEKANEIYISDETGRVKVLLENESLYYAVDIGSYVEIYNALAGEDGIYVDRNSRFSVGELEHHHHHH	not soluble
MGCLSYMVLSGDEALVVDPLRFIDVYEQVAQQEGVTITHIVDSHLHADHLSGGKALAERTGAAYYLMKSEGAVFDFEPLEQHETIDFENVHLEVLAVKTPGHTPGSVSFFVNGKWLFSGDTIFVGGLGRPDLGGKVAEWAEDLYHTVYEKVAAMADDVIVLPAHYANLDEEINAEGYVGDTLGRIRARNEMMQNKAKDEFIDLVIQGLEHHHHHH	not soluble
MGCVPRIEFGCSSQSLTLSWNLRAWNLCRLNTISHFQKLPYPLVASTRKHYKNSLLLKRFLVGVGTEESSLSEDLLDESLSRPLTSDELKSLLIDTERSKLVKKLSEANQQNRFLKRQEHEITNIKTELALMELEVQALVKLAEEIANLGIPQGSRKISGKYIQSHLLSRLDAVQKKMKEQIKGVEAAQSKEVHVFWIGMAESVQVMGSFDGWSQREDLSPEYSALFTKFSTTLFLRPGRYEMKFLVDGEWQISPEFPTSGEGLMENNVLVVE	soluble
MGCYHPLSGTDGTLMRHTLPIAPQFYVTAPQPCPYLAGRMERKLFTALQGEGAERLNNALSQQGFRRSQNVLYRPSCADCAACLSARIDVSAFRASRSQKRAMRRNAHLTRRATSPWATDEQYELFRRYLDSRHADGGMADMDVFEFAAMIEETPIRSRVIEYAHRDTRALIGVSLTDVLDDGLSMVYSFYDPDLHRDSLGTHMILDHIAIAREAGLPYVYLGYWVPGSPKMGYKSRFSGLEIYLGGRWQAMTDPEAHDAIRHPLSTDPIAEQVANIQLPDRWPTGDLEHHHHHH	not soluble

From the DeepSol protein solubility set
